Patent US20230174624A1, “FERRITIN VARIANTS WITH INCREASED STABILITY, COMPLEXATION ABILITY AND TRANSFERRIN RECEPTOR AFFINITY” (CELLIS AG, priority 2020, published 2023)
Entries after “also recorded” stand apart in the source; their conditions may differ.

What was measured:
siRNA = siRNA association with ferritin (gel); format: binding
Experimental: 1 ml reaction containing 2 mg Ft and 4 ug siRNA in DPBS, pH lowered to values as indicated (2.5, 3.2, 4.4, 5.6 and 6.8, respectively). Samples were incubated 15 min in RT, then NaOH was added to adjust pH to neutral (pH 7). Non-associated free siRNA was removed by 4 centrifugation steps on Amicons with 100 kDa cut-off.

TfR1 = TfR1 (Homo sapiens, UniProt P02786); assay: Surface plasmon resonance binding of ferritin to immobilized his-tagged TFRC receptor
Experimental: FIG. 2: Sensorgrams corresponding to the interaction between the immobilized his-tagged TFRC receptor and human ferritin. Panel A: mutant Q11E, panel B: wild type. X-axis: time (s). The same amount of receptor was trapped onto the chip surface (see methods section for details). Five different analyte concentrations (0.0625, 0.125, 0.250, 0.5 and 1 mg/ml) were used. For all analyte concentrations measured, the amount of ferritin bound is higher for the Q11E mutant than for wild-type ferritin.
Binding of wild type and Q11E mutant ferritin to TfR1 was analysed by surface plasmon resonance.

[1] = Native gel after storage in a freezer (-80 degrees Celsius) and thawing; format: physicochemical; details: ferritin-dox
[2] = Native PAGE gel after doxorubicin encapsulation and purification; format: physicochemical; details: ferritin-dox after encapsulation, concentrated on 10 or 100 kDa Amicon
Text: Native PAGE gel has been performed in order to check the size of the protein after encapsulation and purification.

[3] = system: breast and ovarian cancer cell lines: MDA-MB 231, Skov3 and 4T1; assay: Tumour cell viability after co-culture with macrophages carrying doxorubicin packed ferritin; format: cell-based; details: 72 h co-culture with macrophages, ferritin cages filled with doxorubicin 1 mg/ml
Experimental: FIG. 7: Graphs of tumour cell viability after 72 h co-culture with macrophages. The concentration of ferritin cages filled with doxorubicin was the same for each variant of ferritin and was equal to 1 mg/ml.
In vitro experiments have shown that ferritin mutants reveal better cytotoxicity against tumor cells. The doxorubicin packed proteins were inserted into macrophages and then co-cultured with breast and ovarian cancer cell lines: MDA-MB 231, Skov3 and 4T1. The number of viable cells after co-culture was the lowest for the Q11E-Q15E mutant (FIG. 7).

TfR1, sequence (P02786 whole entry, species assumed): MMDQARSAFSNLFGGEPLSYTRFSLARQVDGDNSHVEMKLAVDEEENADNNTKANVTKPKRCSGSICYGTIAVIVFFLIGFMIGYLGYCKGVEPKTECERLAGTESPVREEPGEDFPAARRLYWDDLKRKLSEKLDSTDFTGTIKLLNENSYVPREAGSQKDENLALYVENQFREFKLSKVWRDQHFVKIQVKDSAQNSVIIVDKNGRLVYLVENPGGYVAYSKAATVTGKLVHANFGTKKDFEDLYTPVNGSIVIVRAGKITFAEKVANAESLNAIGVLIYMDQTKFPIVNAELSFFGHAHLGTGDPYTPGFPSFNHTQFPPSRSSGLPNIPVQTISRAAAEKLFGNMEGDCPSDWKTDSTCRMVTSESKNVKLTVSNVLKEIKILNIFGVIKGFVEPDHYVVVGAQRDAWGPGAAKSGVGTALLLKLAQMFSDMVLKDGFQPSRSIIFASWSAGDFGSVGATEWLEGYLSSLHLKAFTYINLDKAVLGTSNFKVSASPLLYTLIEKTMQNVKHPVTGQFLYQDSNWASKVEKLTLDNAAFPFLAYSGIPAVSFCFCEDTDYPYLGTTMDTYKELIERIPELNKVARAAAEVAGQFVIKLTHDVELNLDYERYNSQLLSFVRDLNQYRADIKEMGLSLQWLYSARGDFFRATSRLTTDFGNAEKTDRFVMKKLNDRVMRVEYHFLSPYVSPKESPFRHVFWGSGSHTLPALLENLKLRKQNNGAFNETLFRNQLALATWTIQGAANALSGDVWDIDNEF

binding affinity to the CD71 receptor relative to wild type (TfR1) | rate of release from its complex with CD71 receptor (TfR1) | KD (TfR1; global fit, simple 1:1 binding mode, versus wild type) | amount of ferritin bound (TfR1; versus wild-type ferritin, analyte 0.0625-1 mg/ml) | Substance | association with siRNA (siRNA; incubated in pH 2.4 and 3.2) | association with siRNA (siRNA; incubated in pH range 4.4 to 6.8) | stability of cages after storage [1] | forms on native gel (24-mers versus aggregates) [2] | number of viable cells after co-culture [3]
at least fourfold | slow rate of release | lower KD value | higher | Q11E: human H ferritin mutant Q11E (TRBD SEQ ID NO. 05); in examples 3-8 also K54E, K72E, K87Q, K144E, C91S, C103S, C131S (MTTASTSQVRENYHQDSEAA; listed as Homo sapiens) | not | associated with siRNA | still present as 24-mers (homogeneous cages) after storage; also recorded: reduces the presence of aggregates and allows the storage of ferritin cages with doxorubicin in the freezer | present as 24-mers (homogeneous cages) | 
 |  |  |  | Q11E-Q15E: human H ferritin mutant Q11E Q15E (TRBD SEQ ID NO. 12); in examples 3-8 also K54E, K72E, K87Q, K144E, C91S, C103S (MTTASTSQVRENYHEDSEAA; listed as Homo sapiens) |  |  | still present as 24-mers (homogeneous cages) after storage | present as 24-mers (homogeneous cages) | lowest
